Laboratory results: US20160185837A1 (Medimmune Limited, priority 2013, published 2016)

Tests used:
[1] = Extended pharmacokinetics, serum ELISA for protein (Fc) detection; type: in vivo, CD male rats; details: 1 mg/kg subcutaneously or intravenously, serum out to 168 hours
Protocol: More extended pharmacokinetic assays to determine protein stability and activity were performed as follows. CD male rats (n=3) were injected subcutaneously or intravenously with 1 mg/kg IP088 or GLP1a-Fc. Periodic serum samples were obtained out to 168 hours. The serum samples were subjected to ELISA for protein (Fc) detection by the following method. ELISA plates (Costar 3690) were coated with Mouse anti-human IgG (JCD-10) 1/500 in PBS (final concentration 1 μg/ml). […] was added to each well and the plates were incubated overnight at 4° C. Following washing with PBS-Tween (PBS-T), the plates were blocked with […] 1% BSA in PBS for 1 h at RT with gentle shaking. Following washing with PBS-T, standards, and dilutions of […] samples were added (50 μl/well), and the plate was incubated for 2 h at RT with gentle shaking. Following washing […] biotinylated mouse anti-human IgG (JCD-10) diluted 1/1000 in ELISA incubation buffer (final concentration 0.5 μg/ml) was added to each well and the plates were incubated for 1 h at RT with gentle shaking. Following washing […] of Streptavidin-HRP diluted 1/1000 in ELISA incubation buffer was added to each well, and the plates were incubated for 45 min at RT with gentle shaking. […]

[2] = PK by Activity
Protocol: Table printed on a drawing sheet, FIG. 3D-F
Circles: IV injection of 1 mg/kg, squares: subcutaneous injection of 1 mg/kg. Pharmacokinetic parameters Cmax, bioavailability (F %) and half-life T1/2 are compared in panel C.
Circles: IV injection of 1 mg/kg, squares: subcutaneous injection of 1 mg/kg. Pharmacokinetic parameters Cmax, bioavailability (F %) and half life T112 are compared in panel F.
First reader's note: Panel F of FIG. 3D-F; the pharmacokinetic parameters were derived from plasma levels measured by activity (sheet heading 'PK by Activity').

[3] = Preliminary pharmacokinetics in mouse, serum activity at hGLP-1r by cAMP assay; type: in vivo; details: 1 mg/kg subcutaneously, C57 Bl/6J mice, cAMP assay in HBSS/HEPES 0.1% BSA
Protocol: Preliminary pharmacokinetics in mouse was examined as follows: C57 Bl/6J mice were injected with 1 mg/kg (subcutaneously) with either IP088 or GLP1a-Fc, and serum samples were taken over time (3 animals per time point). The serum samples were then measured for activity at the hGLP-1r by the cAMP assay in HBSS/HEPES 0.1% BSA, as described above.

[4] = target: T1, hGIPr (C3) (Homo sapiens, UniProt P48546); experiment: BSA-cAMP assay, second human GIPr cell line hGIPr (C3); type: cell-based; details: Batch 1, second hGIPr cell line, read-out: hGIPr (C3) cAMP activity EC50
T1 construct: expressed in transfected cells
T1 sequence (P48546 22-466): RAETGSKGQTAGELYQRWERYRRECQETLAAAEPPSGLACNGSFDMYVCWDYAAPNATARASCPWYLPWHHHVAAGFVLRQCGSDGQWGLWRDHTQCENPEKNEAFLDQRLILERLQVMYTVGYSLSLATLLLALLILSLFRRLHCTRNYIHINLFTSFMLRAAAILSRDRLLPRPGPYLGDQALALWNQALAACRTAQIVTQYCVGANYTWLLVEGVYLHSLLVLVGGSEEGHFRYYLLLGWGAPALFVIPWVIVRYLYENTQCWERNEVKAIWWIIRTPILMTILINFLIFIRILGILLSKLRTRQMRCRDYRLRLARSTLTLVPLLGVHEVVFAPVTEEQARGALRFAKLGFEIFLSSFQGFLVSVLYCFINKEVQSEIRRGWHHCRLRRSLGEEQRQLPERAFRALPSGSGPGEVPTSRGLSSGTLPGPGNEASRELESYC
Protocol: For human GIPr, two different lines were used, shown as “hGIPr” and “hGIPr (C3)” in Table 11. Peptide activation of these various receptors results in downstream production of cAMP second messenger that can be measured in a functional activity assay.
One basic cAMP assays was performed, differing in the medium used for the assay, the “BSA-cAMP assay”:
BSA-based assay medium: 0.1% bovine serum albumin (BSA) in
Hanks Balanced Salt Solution (GIBCO or Sigma), containing 0.5 mM IBMX (Sigma #17018);
In certain aspects, the assay can also be carried out in medium supplemented with serum albumin that corresponds to the receptor being tested, e.g., human serum albumin for testing cAMP activity at hGIPr or hGLP-1r, rat serum albumin for testing cAMP activity at rGIPr or rGLP-1r, and so on. […]
cAMP levels were measured using a commercially available cAMP dynamic 2 HTRF kit (Cisbio, Cat #62AM4PEJ), following the two step protocol as per manufacturer's recommendations. […] Plates were incubated at room temperature for one hour and then read on an Envision (Perkin Elmer) using excitation wavelength of 320 nm and emission wavelengths of 620 nm & 665 nm. Data was transformed to % Delta F as described in manufacturer's guidelines and then transformed to percent activation of maximal native agonist response and analysed by 4-parameter logistic fit to determine EC50 values. […]

| Molecule | PK profile by Fc ELISA (Cmax, bioavailability, half-life), in words [1] | Cmax [2] | F (%) [2] | t½ [2] | time for which serum activity at hGLP-1r is maintained in the nanomolar range in vivo [3] | EC50 [4] |
| --- | --- | --- | --- | --- | --- | --- |
| IP088: Fc fusion, IgG1-TM, SEQ ID NO:105; agonist peptide YSEGTFTSDYSKLLEEEAVRLFIEWLVKGP (SEQ ID NO:15) (protein, also: Fc fusion, IgG1-TM) YSEGTFTSDYSKLLEEEAVRLFIEWLVKGPAAAGGSGSTASSGSGSATGGGGAATHTCPPCPAPEF | equivalent PK profiles | 98 nM | 72% | 24 h | at least 48 hours | – |
| IP367 (protein) YSEGTFTSDYRILKERQAIDEFIAWLLKGGAAAGGSGSTASSGSGSATGGGGAATHTCPPC | – | – | – | – | – | 13 nM |
